The assay deals with α2β1 integrin (human (endogenous in HT1080)) (UniProt P17301).
UniProt P17301, sequence (P17301 30-1181, chain 1 of 2): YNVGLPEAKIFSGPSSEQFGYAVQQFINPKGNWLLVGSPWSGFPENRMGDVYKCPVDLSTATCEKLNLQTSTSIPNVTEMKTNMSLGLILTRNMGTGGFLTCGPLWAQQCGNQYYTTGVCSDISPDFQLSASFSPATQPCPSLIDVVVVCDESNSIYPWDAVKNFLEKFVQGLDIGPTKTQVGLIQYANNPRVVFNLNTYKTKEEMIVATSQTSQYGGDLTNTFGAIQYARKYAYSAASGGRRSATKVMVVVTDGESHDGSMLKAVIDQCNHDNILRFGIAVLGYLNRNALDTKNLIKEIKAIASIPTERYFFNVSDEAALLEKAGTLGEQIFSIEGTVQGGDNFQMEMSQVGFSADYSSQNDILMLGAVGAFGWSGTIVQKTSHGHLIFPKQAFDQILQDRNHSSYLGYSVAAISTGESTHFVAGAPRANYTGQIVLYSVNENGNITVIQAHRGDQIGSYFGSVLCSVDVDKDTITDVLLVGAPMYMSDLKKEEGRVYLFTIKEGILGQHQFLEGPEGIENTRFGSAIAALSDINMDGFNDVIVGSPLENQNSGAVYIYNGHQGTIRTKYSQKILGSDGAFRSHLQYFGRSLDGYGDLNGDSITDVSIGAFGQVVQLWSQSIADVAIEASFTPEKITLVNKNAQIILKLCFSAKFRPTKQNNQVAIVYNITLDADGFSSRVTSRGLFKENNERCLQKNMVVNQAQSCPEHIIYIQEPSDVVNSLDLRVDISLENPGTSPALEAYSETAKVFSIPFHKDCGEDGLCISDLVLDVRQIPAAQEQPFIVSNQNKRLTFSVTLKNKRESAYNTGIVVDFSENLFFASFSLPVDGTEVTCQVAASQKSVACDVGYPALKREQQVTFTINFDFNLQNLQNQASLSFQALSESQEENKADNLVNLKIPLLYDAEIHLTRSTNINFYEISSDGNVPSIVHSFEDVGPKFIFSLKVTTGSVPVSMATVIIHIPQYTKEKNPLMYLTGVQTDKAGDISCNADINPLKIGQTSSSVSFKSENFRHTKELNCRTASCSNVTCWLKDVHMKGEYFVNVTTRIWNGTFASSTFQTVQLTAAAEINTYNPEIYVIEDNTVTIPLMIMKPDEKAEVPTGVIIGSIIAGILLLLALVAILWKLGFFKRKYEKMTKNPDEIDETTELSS
UniProt P17301, sequence (P05556 21-798, chain 2 of 2, further chain): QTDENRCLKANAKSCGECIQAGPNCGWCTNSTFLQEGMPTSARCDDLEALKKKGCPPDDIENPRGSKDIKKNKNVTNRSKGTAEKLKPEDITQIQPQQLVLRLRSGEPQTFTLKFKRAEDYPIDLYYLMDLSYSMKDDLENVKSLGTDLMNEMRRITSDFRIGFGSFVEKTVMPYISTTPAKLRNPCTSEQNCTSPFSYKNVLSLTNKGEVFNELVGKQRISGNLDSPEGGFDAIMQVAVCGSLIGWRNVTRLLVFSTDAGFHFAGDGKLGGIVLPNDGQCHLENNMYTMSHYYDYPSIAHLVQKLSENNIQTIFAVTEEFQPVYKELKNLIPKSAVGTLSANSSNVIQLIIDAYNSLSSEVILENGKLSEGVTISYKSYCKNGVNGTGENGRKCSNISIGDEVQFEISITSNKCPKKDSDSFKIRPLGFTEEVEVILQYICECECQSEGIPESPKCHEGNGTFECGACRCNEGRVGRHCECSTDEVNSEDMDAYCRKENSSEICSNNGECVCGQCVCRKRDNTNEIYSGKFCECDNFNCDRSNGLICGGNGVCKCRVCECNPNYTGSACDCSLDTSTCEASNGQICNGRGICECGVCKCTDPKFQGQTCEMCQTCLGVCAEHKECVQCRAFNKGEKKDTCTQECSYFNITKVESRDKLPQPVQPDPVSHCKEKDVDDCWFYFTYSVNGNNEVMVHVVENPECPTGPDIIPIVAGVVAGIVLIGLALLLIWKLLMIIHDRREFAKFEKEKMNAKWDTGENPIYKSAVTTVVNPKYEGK

In the case of GFOGER peptide, the adhesion of HT1080 cells pre-incubated with 10 μg/mL mAb13 (anti-β1) on Fmoc-FF/S/GFOGER hydrogel came to 23%.

In the case of “Rat Tail Collagen (from UniProt P02454 152-1207; P02466 86-1125) (natural protein)”, the adhesion of HT1080 cells pre-incubated with 10 μg/mL mAb13 (anti-β1) on RTC-modified hydrogel came to 15%.

(Values after article PMC9140497.)
